Here are results for four molecules from PMC4960544, “Production of full-length soluble Plasmodium falciparum RH5 protein vaccine using a Drosophila melanogaster Schneider 2 stable cell line system” (Scientific Reports, 2016).

One data set concerns the target basigin (Homo sapiens) (UniProt P35613). Nature of the data set: SPR. The following applies: cited from earlier work.
Data set [1] is described as follows: single-cycle GIA with purified rabbit total IgG. Conditions: glycan lost; control: v5.0 (native sequons, glycosylated).
Data set [2] can be described thus: rabbit serum anti-PfRH5 v2.0 IgG ELISA. Conditions: glycan lost; control: v5.0 (native sequons, glycosylated). (In an ELISA, binding on a coated surface is turned into a signal by an enzyme label.)
Data set [3] is described as follows: GIA versus anti-PfRH5 IgG concentration, fitted curves. Conditions: glycan lost; control: v5.0 (native sequons, glycosylated).

What is called Kd is the constant that tells how readily two partners part at equilibrium.

Chain of basigin (Homo sapiens) (P35613 22-325): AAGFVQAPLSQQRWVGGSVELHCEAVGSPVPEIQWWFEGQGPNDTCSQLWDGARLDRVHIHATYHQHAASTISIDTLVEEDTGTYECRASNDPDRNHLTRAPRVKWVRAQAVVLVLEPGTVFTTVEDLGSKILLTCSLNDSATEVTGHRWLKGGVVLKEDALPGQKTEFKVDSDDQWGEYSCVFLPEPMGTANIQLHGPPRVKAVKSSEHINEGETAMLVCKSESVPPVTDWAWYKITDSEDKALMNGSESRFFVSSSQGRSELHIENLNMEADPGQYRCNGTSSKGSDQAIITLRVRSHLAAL

Consider PfRH5 (from UniProt Q8IFM5), for which the Kd with basigin (Homo sapiens) is 1500 nM.

B1: PfRH5 (reticulocyte-binding protein homolog 5): v3.0 (four Asn to Gln) (protein)
parent chain: MIRIKKKLILTIIYIHLFILNRLSFENAIKKTKNQENNLTLLPIKSTEEEKDDIKNGKDIKKEIDNDKENIKTNNAKDHSTYIKSYLNTNVNDGLKYLFIPSHNSFIKKYSVFNQINDGMLLNEKNDVKNNEDYKNVDYKNVNFLQYHFKELSNYNIANSIDILQEKEGHLDFVIIPHYTFLDYYKHLSYNSIYHKSSTYGKCIAVDAFIKKINETYDKVKSKCNDIKNDLIATIKKLEHPYDINNKNDDSYRYDISEEIDDKSEETDDETEEVEDSIQDTDSNHTPSNKKKNDLMNRTFKKMMDEYNTKKKKLIKCIKNHENDFNKICMDMKNYGTNLFEQLSCYNNNFCNTNGIRYHYDEYIHKLILSVKSKNLNKDLSDMTNILQQSELLLTNLNKKMGSYIYIDTIKFIHKEMKHIFNRIEYHTKIINDKTKIIQDKIKLNIWRTFQKDELLKRILDMSNEYSLFITSDHLRQMLYNTFYSKEKHLNNIFHHLIYVLQMKFNDVPIKMEYFQTYKKNKPLTQ
Turning to B1, the “other: immunogenicity (growth inhibition by induced IgG), EC50” value in data set [1] was “increases, 8.4 vs >10”. The “other: immunogenicity, other: median PfRH5-specific IgG” value (“other: immunogenicity, other” below) in data set [2] was “increases, 535 vs 40”.

B2: PfRH5 (reticulocyte-binding protein homolog 5): v2.0 (four Thr to Ala) (protein)
parent chain: B1 parent chain
As for B2, the “other: immunogenicity (growth inhibition by induced IgG), EC50” value in data set [1] is “increases, 4 vs >10”. The “other: immunogenicity, other” value in data set [2] is on record as “increases, 278 vs 40”. Besides, the “other: immunogenicity (antibody quality, GIA per antigen-specific IgG), EC50” value in data set [3] was “no change, median EC50 of 129 μg/mL (95% CI 80.7–186.7 μg/mL) anti-PfRH5 IgG”.

B3: PfRH5 (reticulocyte-binding protein homolog 5): v4.0 (N38Q and N214Q) (protein)
parent chain: B1 parent chain
On to B3, for which the “other: immunogenicity (growth inhibition by induced IgG), EC50” value in data set [1] is on record as “no change, >10 vs >10”. Also, in data set [2], the “other: immunogenicity, other” value is recorded as “increases, 116 vs 40”.
